# Measurements as given in patent publication US20250011411A1 (JIANGSU HENGRUI PHARMACEUTICALS, published 2025).
# Positions count from the first letter of the chain named.
# B1: murine anti-human SOST monoclonal antibody Ab-1 (antibody, V domains shown)
# VH: EVQLQQSGPELVKPGTSVKIPCQTSGYTFTDYNLDWLKQRPGESLEWIGDIDPNNGDILYNQKFRDKATLTVDTSSNTAYLELRSLTSEDTAVYYCARRWAYYFDYWGQGTTLTISS
# VL: NIVMTQTPKLLFVSAGDRITITCKASQSVSNDVAWYQQKPGQSPKLLIYYTSNRFTGVPDRFTGSGYGTDFTLTINTVQAEDLAVYFCQQDYSSPVTFGAGTKLELK
# notes: Murine hybridoma antibody; also called monoclonal hybridoma cell strain Ab-1; murine antibody Ab-1
# B2: humanized anti-SOST antibody Ab-5 (antibody, human IgG4 S228P, kappa, V domains shown)
# VH: EVQLVQSGAEVKKPGASVKVSCKASGYTFTDYNLDWLRQAPGEGLEWIGDIDPNDGDILYNQKFRDRVTMTTDTSTSTAYMELRSLRSDDTAVYYCARRWAYYFDYWGQGTTVTVSS
# VL: DIVMTQSPSSLSASVGDRVTITCKASQSVSNDVAWYQQKPGKSPKLLIYYTSNRFTGVPDRFSGSGSGTDFTLTISSLQPEDFATYFCQQDYSSPVTFGGGTKVEIKR
# notes: Human IgG4 heavy chain and kappa light chain
# B3: humanized anti-SOST antibody Ab-9 (antibody, human IgG4 S228P, kappa, V domains shown)
# VH: B2 VH with D55N
# VL: B2 VL with D1N
# notes: as for B2
# B4: humanized anti-SOST antibody Ab-10 (antibody, human IgG1, kappa, V domains shown)
# VH: B2 VH with L37V, E43Q, I48M, D55N
# VL: B2 VL with V3Q, S43A, D60S, F87Y
# notes: kappa light chain
# How the values were obtained:
# human sclerostin (SOST) [1] = target: T1, human sclerostin (SOST) (human, UniProt Q9BQB4 24-213); test: ELISA binding to human sclerostin (assay not given; taken from the text of Example 1)
# T1 construct: also called human SOST; h-SOST
# T1 sequence (looked up): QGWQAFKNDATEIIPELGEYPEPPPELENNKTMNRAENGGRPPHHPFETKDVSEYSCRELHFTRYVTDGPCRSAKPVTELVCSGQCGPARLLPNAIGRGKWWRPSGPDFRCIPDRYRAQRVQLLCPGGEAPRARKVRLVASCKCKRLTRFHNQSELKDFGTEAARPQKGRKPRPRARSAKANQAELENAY
# human sclerostin (SOST) [2] = target: T1, human sclerostin (SOST); test: blocking of the binding of human SOST to human LRP-6
# human sclerostin (SOST) [3] = target: T1, human sclerostin (SOST); test: binding ELISA, antigen-receptor binding blocking experiments, Biacore; no numbers given
EC50 (human sclerostin (SOST) [1]) [nM],IC50 (human sclerostin (SOST) [2]) [nM],binding result (human sclerostin (SOST) [3]),Binder
0.701,9.91,–,B1
–,–,binds,B2
–,–,binds,B3
–,–,binds,B4
